These results are taken from article PMC11927390 (Cancer Research Communications, 2025).

Common to all, as to conditions: both partners purified
Assay [1] has as its target human ULBP1 (Homo sapiens (Human)., UniProt Q9BZM6). As to the kind of experiment: SPR; 23ME-01473 and human ULBPs, as described for NKG2D (Biacore, 37°C, Protein A chip, HBS-P, ligands injected); one-to-one Langmuir model, KD = kd/ka. In general terms: SPR reads the build-up and loss of mass on a sensor chip optically.
The target of assay [2] is human ULBP2 (Homo sapiens (Human)., UniProt Q9BZM5). The assay is described as above.
Chain of human ULBP2 (Q9BZM5 26-217): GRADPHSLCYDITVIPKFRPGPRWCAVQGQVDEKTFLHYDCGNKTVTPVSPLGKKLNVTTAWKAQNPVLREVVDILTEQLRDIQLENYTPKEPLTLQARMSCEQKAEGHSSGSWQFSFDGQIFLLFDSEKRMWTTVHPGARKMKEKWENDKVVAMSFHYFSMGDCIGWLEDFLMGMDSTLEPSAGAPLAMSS
For assay [3], the target named is human ULBP5 (Homo sapiens (Human)., UniProt Q6H3X3). Described as above.
Chain of human ULBP5 (Q6H3X3 26-218): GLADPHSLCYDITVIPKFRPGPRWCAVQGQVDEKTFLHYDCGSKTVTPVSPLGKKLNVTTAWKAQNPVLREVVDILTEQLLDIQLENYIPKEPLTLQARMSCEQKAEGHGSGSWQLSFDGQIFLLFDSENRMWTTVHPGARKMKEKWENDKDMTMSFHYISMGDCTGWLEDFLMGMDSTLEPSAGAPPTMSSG
The target in assay [4] is human ULBP3 (Homo sapiens (Human)., UniProt Q9BZM4). The assay is described as above.
Chain of human ULBP3 (Q9BZM4 30-217): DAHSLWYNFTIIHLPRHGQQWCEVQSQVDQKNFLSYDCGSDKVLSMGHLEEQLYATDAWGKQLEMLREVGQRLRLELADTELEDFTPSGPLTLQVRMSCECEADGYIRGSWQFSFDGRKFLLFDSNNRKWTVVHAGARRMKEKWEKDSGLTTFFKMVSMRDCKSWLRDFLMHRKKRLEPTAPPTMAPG
In assay [5] the target is human ULBP6 (allelic isoform not stated) (Homo sapiens, ULBP6-02 allele (R26, …, UniProt Q5VY80)). The assay is described as above.
Assay [6] has as its target biotinylated ULBP5 (human, UniProt Q6H3X3, biotin). As to the kind of experiment: ELISA; blocking assay: plates coated with Fc-tagged NKG2D; biotinylated ULBP5 (1.55 nmol/L) or ULBP6-02 (0.15 nmol/L) at its EC80 precomplexed with 23ME-01473 and transferred to the plates; IC50 from dose-response fit. On the technique in general: ELISA stands for enzyme-linked immunosorbent assay.

Assay [7] has as its target biotinylated ULBP6-02 (human, UniProt Q5VY80, biotin). The assay is described as above.
Assay [8] concerns the target T1, human ULBP6-02 extracellular domain (residues R26-G218) (human, UniProt Q5VY80 26-218, glycosylation of residues N68 and N82 (in the crystal structure)).
T1 construct: the construct of the SPR with NKG2D and of the cell assays is only called ULBP6-02 or recombinant ULBP6-02; also called sULBP6-02; sULBP6; source: recombinant, 23andMe, Inc; mammalian expression system
T1 sequence (looked up): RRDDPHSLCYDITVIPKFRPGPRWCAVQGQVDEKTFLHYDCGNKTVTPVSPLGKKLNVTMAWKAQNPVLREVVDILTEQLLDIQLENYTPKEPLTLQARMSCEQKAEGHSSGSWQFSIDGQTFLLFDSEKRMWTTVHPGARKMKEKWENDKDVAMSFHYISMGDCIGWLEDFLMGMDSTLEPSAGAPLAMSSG
Briefly: SPR; Biacore 8K or 8K+, 37°C; Fc-tagged human NKG2D (0.5 μg/mL) captured on Series S Sensor Protein A chip to about 25 RU; threefold serial dilutions of NKG2DLs injected at 30 μL/minute in HBS-P (0.01 mol/L HEPES pH 7.4, 0.15 mol/L NaCl, 0.005% P20); KD from steady-state fit.

Chain of human ULBP1 (Q9BZM6 26-216): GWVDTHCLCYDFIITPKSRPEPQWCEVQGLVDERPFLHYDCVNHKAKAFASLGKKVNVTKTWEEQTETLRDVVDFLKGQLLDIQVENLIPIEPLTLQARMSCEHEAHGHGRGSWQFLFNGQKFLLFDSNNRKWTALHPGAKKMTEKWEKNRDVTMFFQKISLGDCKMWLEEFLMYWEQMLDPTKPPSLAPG
Chain of biotinylated ULBP5 (Q6H3X3 26-218): as the sequence (Q6H3X3 26-218) above

B1: 23ME-01473, humanized Fc effector-enhanced (afucosylated) anti-ULBP6/2/5 antibody (antibody, V domains shown)
VH: EVQLVESGGGLVQPGGSLRLSCAASGFTFSTYGFHWVRQAPGKGLEWVAYISSNSGTIDYADTVKGRFTISRDNAKNSLYLQMNSLRAEDTAVYYCARQGYGFDNWGQGTTVTVSS
VL: DIQLTQSPSSLSASVGDRVTITCSASSRVSYMNWYQQKPGKSPKIWVYGISNLASGVPSRFSGSGSGTDFTFTISSLQPEDIATYYCQQRSSHPLTFGGGTKVEIK
notes: variable domain as in the heavy chain of the Fab m2; human IgG1 heavy constant region; as the light chain of m2; Humanized by CDR grafting from a mouse hybridoma clone; also called Fc-enhanced anti-ULBP6/2/5 antibody; source: CHO FUT8-KO, transfected, purified (Protein A, SEC Superdex 200)
Regarding B1, the binding result in assay [1] and in assay [4] was “no binding” each time. The Kd in assay [2] amounted to 0.23 nM; in assay [3], 1.92 nM; in assay [5], 0.053 nM. In addition, the figures for the IC50 in assay [6] and in assay [7] were 0.31 nM and 0.04 nM, respectively.

B2: Fc-tagged human NKG2D (Fc fusion, UniProt P26718 73-216, looked up)
chain: IWSAVFLNSLFNQEVQIPLTESYCGPCPKNWICYKNNCYQFFDESKNWYESQASCMSQNASLLKVYSKEDQDLLKLVKSYHWMGLVHIPTNGSWQWEDGSILSPNLLTIIEMQKGDCALYASSFKGYIENCSTPNTYICMQRTV
notes: NK group 2D receptor (NKG2D), human; also called Fc-tagged NKG2D
As to B2, the binding result in assay [8] is listed as “binds”.

Usually Kd stands for the equilibrium constant for the complex coming apart. A low value points to higher affinity. One may read the IC50 as the concentration that inhibits the measured activity by half. Low readings indicate greater potency, high ones weaker potency.
